The results in this text go back to patent US20060177816A1, “Cellular RhoGTPase activation assay” (Abbott GmbH & Co. KG., priority 2005, published 2006).

The target in data set [1] is human Nogo receptor (hNgR) (human) (UniProt Q9BZR6). The experiment in a line: cell-based or functional assay.
Data set [2] relates to HEK293-RhoA/NgR/p75 cells. Put plainly: ACR (actin cytoskeletal rearrangement) assay with image analysis. Format: cell-based, human. Here is the method: 1×10^4 cells were transferred into microtiter plates with 96 wells two days before the stimulation. The cells were stimulated with a suitable reagent (e.g. LPA or AP-Nogo-66) in culture medium (RPMI-Glutamax) comprising 5% FCS. After a stimulation period of 5 to 10 minutes, the activation was stopped with cold PBS. The cells were fixed with 3-4% strength paraformaldehyde solution, permeabilized with PBS comprising 0.2% Triton X-100, and incubated with phalloidin Alexa 568 or 488 for 30-45 minutes. Incubation with DAPI additionally took place for 5 minutes for nuclear staining. The cells were visualized with the aid of an epifluorescence microscope (Axiovert 25). Fluorescence micrograms were recorded using a cooled Zeiss CCD camera.
HEK293-Rho/NgR/p75 cells were transferred into microtiter plates with 96 wells (Biocoat Poly D-Lysine Black Clear Plates from Becton Dickinson, Heidelberg, order number 356640). After a starvation period (cf. above) of 2 hours, the cells were preincubated with PI-PLC (1 U/ml) for 30 minutes or not treated. The cells were subsequently stimulated with LPA or AP-Nogo-66 or remained unstimulated. Fluorescence micrograms were obtained as described above. Representative appearances are depicted in FIG. 5b.
Fluorescence micrograms (FIG. 6a) obtained from an ACR assay carried out according to the invention (stimulation of HEK293-RhoA/NgR/p75 cells with 10 μg/ml AP-Nogo-66) were investigated with various high content screening systems, e.g. with the Atto Pathway HT image analysis system from BD Bioimages (Becton Dickinson) or the Discovery 1 from Molecular Devices, for changes in the cell morphology. […] The Pathway HT was used to determine the number of so-called cytoplasmic vertices (cytoplasmic vertices are a measure of changes in the cytoskeleton which describes inter alia the contraction of actin filaments and the formation of stress fibers). The result of this evaluation is depicted in FIG. 6c.
To analyze the reported morphological changes, 1×10^4 cells per well were seeded into 96-well plates, fixed, the actin filaments were stained with FITC-labelled Alexa Phalloidin and the nuclei were visualized with DAPI. The plates were subjected to our high-content screening (HCS) system, the Pathway HT (Becton Dickinson) and the corresponding image analysis software Attovision. Analyzing the perimeter of the actin cytoskeleton achieved the most significant difference when comparing stimulated with unstimulated samples. The perimeter of the actin cytoskeleton is calculated as “cytoplasmic verticies”, which is a measure for the number of turns or changes in direction that lines outlining the cell follow.

Data set [3] concerns Rho. Put plainly: RBD assay (pulldown of GTP-bound Rho with GST-RBD beads, immunoblot). Format: cell-based, human. Here is the method: The HEK cells either remained unstimulated or were stimulated (e.g. with LPA or AP-Nogo-66) for a period of from 5 to 10 minutes after a 2-hour starvation period (by incubation with serum-free RPMI-Glutamax). HEK cells (1×10^6 per well) were cultured in 6-well plates (volume of mixture 1000 μl/well). Before the stimulation, a particular volume appropriate for the concentration of the AP-Nogo66 batch employed (e.g. 100 μl of medium was removed from each well and the volume was correspondingly made up again to 1000 μl with AP-Nogo66, to result in a defined final concentration of AP-Nogo66 on the cells. Following the stimulation, the AP-Nogo66 medium solution was completely removed by aspiration. The cells were then washed with ice-cold PBS (phosphate-buffered saline) and lyzed in 50 mM Tris, pH 7.5 (comprising NaCl (500 mM), EDTA (1 mM), MgCl2 […], 10% glycerol, NaF (5 mM), DTT (1 mM), 1% Nonidet P-40 in combination with the protease inhibitors PMSF (1 mM), leupeptin (1 μg/ml) and aprotinin (1 μg/ml)).
Cell lysates (e.g. from HEK293-RhoA and HEK293-RhoA/NgR/p75; 400 μg of total protein in each case) were incubated with 40 μg of the GST-RBD beads (comprising recombinant fusion protein composed of glutathione S-transferase and RBD with amino acids 7 to 89 of human rhotekin) at 4° C. for 1 hour. After the beads had been washed 3 times with lysis buffer, the bound protein (GTP-bound, biochemically active Rho) was analyzed by SDS-PAGE and immunoblotting. The immunoblotting was carried out with anti-Rho antibody and the visualization took place by incubation with a horseradish peroxidase-conjugated secondary antibody and chemiluminescence enhancer (ECL).
It was investigated, using the RBD assay described above, whether Rho is activated after stimulation of NgR with myelin proteins, such as Nogo-66, in HEK293-Rho cells which express NgR and p75 (HEK293-Rho/NgR/p75). The results are depicted in appended FIG. 5a.
(In western blotting, separated proteins are transferred to a membrane and probed.)

The target of data set [4] is T1, NgR (Homo sapiens, UniProt Q9BZR6).
T1 sequence (Q9BZR6 27-447): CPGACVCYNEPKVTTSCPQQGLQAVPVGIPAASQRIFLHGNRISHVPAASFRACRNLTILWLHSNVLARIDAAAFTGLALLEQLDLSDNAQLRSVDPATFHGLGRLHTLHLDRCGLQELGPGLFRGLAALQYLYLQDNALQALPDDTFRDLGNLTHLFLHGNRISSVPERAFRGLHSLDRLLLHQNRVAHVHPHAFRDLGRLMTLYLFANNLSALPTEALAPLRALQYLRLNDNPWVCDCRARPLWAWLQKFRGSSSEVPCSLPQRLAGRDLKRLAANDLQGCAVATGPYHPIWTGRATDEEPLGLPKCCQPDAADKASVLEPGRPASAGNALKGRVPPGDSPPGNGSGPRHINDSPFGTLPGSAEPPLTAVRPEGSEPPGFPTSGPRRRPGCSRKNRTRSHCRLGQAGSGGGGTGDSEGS
Put plainly: Preliminary experiments on functional activity of tagged Nogo66 ligands. To be noted: not shown.

Where [5] appears, read: HEK293-RhoA/NgR/p75 cells, stimulated for 5 minutes.

alkaline phosphatase tag = alkaline phosphatase tag, N-terminal fusion Where only a bound is given, the exact number is not on record here.

Turning to “AP-Nogo66 (Nogo-66, comprising an N-terminal alkaline phosphatase Tag) (from UniProt Q9NQC3 1055-1120) (ligand)”, the maximal reduction of the average perimeter (cytoplasmic vertices) against untreated control cells, at 20 nM AP-Nogo66 in data set [1] lay in the range of 80 to 90%.

Turning to `C[C@@H](N)[C@H]1CC[C@H](C(=O)Nc2ccncc2)CC1` [Y-27632, reference compound], the “inhibition of AP-Nogo66 induced Rho-dependent cell rounding and shrinkage” value in data set [2] (15 min pre-treatment before stimulation with 20 nM AP-Nogo66) is “abolished AP-Nogo66 induced Rho-dependent cell rounding and shrinkage in a dose-dependent manner”. Further, the “IC50 for the inhibitory effect on the actin cytoskeletal rearrangement” value in data set [2] (15 min pre-treatment before stimulation with 20 nM AP-Nogo66, no number given) was “ranges in the order of magnitude of what had described for this broadly used compound”.

For “L-alpha-lysophosphatidic acid [LPA, reference compound]”, the Rho activation result is “rapid activation of Rho” in data set [3] (setting [5]) and “rapid activation of Rho” in data set [3] (HEK wild-type cells, LPA stimulation (data not shown)).

B1: AP-Nogo66: Nogo-66, comprising an N-terminal alkaline phosphatase Tag; NgR receptor ligand (protein)
chain: {alkaline phosphatase tag}-RIYKGVIQAIQKSDEGHPFRAYLESEVAISEELVQKYSNSALGHVNCTIKELRRLFLVDDLVDSLK
modifications: not fully specified
notes: Nogo-66, comprising an N-terminal alkaline phosphatase Tag; NgR receptor ligand
Consider B1, for which the “Rho activation after release of NgR from the cell membrane” value in data set [3] (HEK293-RhoA/NgR/p75 cells treated with 1 U/ml PI-PLC 30 minutes before stimulation) is “no Rho activation”. Also, in data set [3] (setting [5]), the Rho activation entry is on record as “induced Rho activity”. Besides, the “time to maximum of morphological changes” value in data set [2] (20 nM AP-Nogo66) turned out to be 15 min. Moreover, the “maximal reduction of the average perimeter (cytoplasmic verticies) in comparison to untreated control cells” value in data set [2] (20 nM AP-Nogo66, 10 min stimulation, Attovision analysis) is 80-90%. For the same molecule, in data set [2] (20 nM AP-Nogo66, onset of actin cytoskeletal rearrangement), the “time to morphological changes” value is no more than 5 min. In addition, the “morphological change of the cells after stimulation” value in data set [2] (10 μg/ml AP-Nogo-66, mean cell length and cytoplasmic vertices) is reported as “significant, optically analyzable morphological change”. Besides, the “morphological changes after PI-PLC treatment and stimulation” value in data set [2] (PI-PLC (1 U/ml) preincubation for 30 minutes) is “not observable”. Besides, the functional activity result in data set [4] is listed as “functionally active”.

B2: GST-Nogo66: otherwise tagged Nogo66 (GST tag) (protein)
chain: RIYKGVIQAIQKSDEGHPFRAYLESEVAISEELVQKYSNSALGHVNCTIKELRRLFLVDDLVDSLK
modifications: not fully specified (N-terminus); also: GST tag, end not given here (dimerising)
Consider B2, for which the functional activity entry in data set [4] is on record as “not”.
